In data set [1] the target is T1, SPX1^1–259 (C-terminally truncated fragment of rice SPX1) (rice, UniProt Q69XJ0 1-259).
T1 construct: also called OsSPX1; not shown: His10, N-terminal, cleaved; MsyB, N-terminal, cleaved
T1 sequence (looked up): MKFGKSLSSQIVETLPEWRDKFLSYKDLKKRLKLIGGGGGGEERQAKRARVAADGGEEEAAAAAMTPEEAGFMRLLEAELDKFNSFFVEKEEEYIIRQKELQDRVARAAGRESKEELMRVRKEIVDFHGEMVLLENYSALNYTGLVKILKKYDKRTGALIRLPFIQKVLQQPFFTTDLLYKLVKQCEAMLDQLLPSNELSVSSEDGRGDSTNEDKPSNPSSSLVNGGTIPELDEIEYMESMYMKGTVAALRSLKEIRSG
Nature of the data set: SEC-MALS; Superdex 200 Increase 10/300 GL, buffer C (20 mM Tris/HCl pH 8.0, 200 mM NaCl, 1 mM TCEP) with 1 mM InsP6, 2–3 mg/ml, 4 °C. The note with it: both partners purified. On the technique in general: In gel filtration, larger molecules generally elute earlier.

Data set [2] concerns the molecule itself. The data set is described as follows: SEC-MALS; Superdex 200 Increase 10/300 GL, buffer C (20 mM Tris/HCl pH 8.0, 200 mM NaCl, 1 mM TCEP) without InsP6, 2–3 mg/ml, 4 °C.
For data set [3], the target named is T1, SPX1^1–259 (C-terminally truncated …). The data set is described as follows: ITC; PHR2^3M at 120 μM injected into SPX1^1–259 at 10 μM, in presence or absence of 1 mM InsP6; 25 °C; buffer F (20 mM HEPES/NaOH pH 7.5, 200 mM NaCl, 2 mM β-mercaptoethanol). The note with it: both partners purified. On the technique in general: In ITC the heat of successive injections is recorded.

The next data set addresses T2, SPX1^1–198 (rice, UniProt Q69XJ0 1-198).
T2 construct: SPX1 (OsSPX1), rice, residues 1-198; also called SPX1 (residues 1–198); not shown: His10, N-terminal, cleaved; MsyB, N-terminal, cleaved
T2 sequence (looked up): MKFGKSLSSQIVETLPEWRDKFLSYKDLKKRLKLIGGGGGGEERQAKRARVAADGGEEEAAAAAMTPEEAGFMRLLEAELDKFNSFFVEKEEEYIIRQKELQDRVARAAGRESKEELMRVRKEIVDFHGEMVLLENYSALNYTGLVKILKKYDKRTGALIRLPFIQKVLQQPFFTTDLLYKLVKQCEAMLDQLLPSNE
Nature of the data set: SEC; gel filtration of SPX1^1–198 and PHR2^248–380 and their mutants, buffer C (20 mM Tris/HCl pH 8.0, 200 mM NaCl, 1 mM TCEP) with or without InsP6 as the methods put it; samples incubated at 4 °C for 12 h (Figs. 2c, 5b, Supplementary Fig. 3a–d). The note with it: both partners purified.

The target in the next data set is T3, SPX1^1–198 E135A (rice, UniProt Q69XJ0 1-198, E135A).
T3 construct: SPX1 (OsSPX1), rice, residues 1-198; not shown: His10, N-terminal, cleaved; MsyB, N-terminal, cleaved
T3 sequence (looked up): T2 sequence (looked up) with E135A
Described as above. The note with it: both partners purified.

A further data set has as its target T4, SPX1^1–198 Y180A (rice, UniProt Q69XJ0 1-198, Y180A).
T4 construct: SPX1 (OsSPX1), rice, residues 1-198; not shown: His10, N-terminal, cleaved; MsyB, N-terminal, cleaved
T4 sequence (looked up): T2 sequence (looked up) with Y180A
The description is as above. The note with it: both partners purified.

Positions count from the first letter of the chain named. In names and notes the source's numbering stands. Several values for one entry are separate records, joined by “and”; a condition that tells them apart may be missing. Equal entries are not always repeated.

B1: PHR2^230–426 (MYB and CC domain-containing fragment of rice PHR2) (domain or fragment)
chain: not shown
notes: Alone in solution a mixture of dimer and tetramer; one copy in the complex with SPX1; not shown: His10, N-terminal, cleaved; MsyB, N-terminal, cleaved
Turning to B1, the “stoichiometry N” value in data set [1] was 1; in data set [2], 2 and 4.

B2: PHR2^(230–426 L348A/L358A/I362A) (domain or fragment)
chain: not shown
notes: also called PHR2^3M; PHR2 monomeric mutant; not shown: His10, N-terminal, cleaved; MsyB, N-terminal, cleaved
In data set [3], B2 gave a Kd of approximately 170 nM.

B3: PHR2^248–380 (domain or fragment)
chain: not shown
notes: PHR2 (OsPHR2), rice, residues 248-380; also called PHR2 (residues 248–380); not shown: His10, N-terminal, cleaved; MsyB, N-terminal, cleaved
For B3, the binding result in the data set with SPX1^1–198, with SPX1^1–198 E135A and in the data set with SPX1^1–198 Y180A was “binds” throughout.

B4: PHR2^248–380 E353A (domain or fragment)
chain: not shown
notes: PHR2 (OsPHR2), rice, residues 248-380; not shown: His10, N-terminal, cleaved; MsyB, N-terminal, cleaved
Turning to B4, in the data set with SPX1^1–198, the binding result is “binds”.

B5: PHR2^248–380 E257A (domain or fragment)
chain: not shown
notes: PHR2 (OsPHR2), rice, residues 248-380; also called PHR2 E257 mutant; not shown: His10, N-terminal, cleaved; MsyB, N-terminal, cleaved
On to B5, for which the binding result in the data set with SPX1^1–198 is listed as “binds”.

B6: PHR2^248–380 E363A (domain or fragment)
chain: not shown
notes: as for B4
On to B6, for which the binding result with SPX1^1–198 was “binds”.

B7: PHR2^248–380 R248A (domain or fragment)
chain: not shown
notes: PHR2 (OsPHR2), rice, residues 248-380; also called PHR2 R248 mutant; not shown: His10, N-terminal, cleaved; MsyB, N-terminal, cleaved
Turning to B7, the binding result with SPX1^1–198 was “binds”.

B8: Arabidopsis PHR1^227–358 (MYB and CC domains only) (domain or fragment)
chain: not shown
notes: The methods describe only SPX1 and PHR2 constructs; also called AtPHR1
Consider B8, for which, in data set [2], the “stoichiometry N” value was found to be 2.

As a reminder, the stoichiometry N is the number of molecules, sites or subunits per partner or assembly. As a reminder, the Kd is the free concentration of one partner at which half of the binding sites on the other are occupied at equilibrium, for simple one-to-one binding. A low value points to higher affinity.

Source of the values: article PMC8639918, “Mechanism of phosphate sensing and signaling revealed by rice SPX1-PHR2 complex structure” (Nature Communications, 2021).
